Assay results as given in the Human Domainome abundance scans (Beltran et al. 2025).
± gives the uncertainty stated by the source.

B1: Gamma-crystallin D, residues 90 to 170; numbered along this chain, P07320 (parent)
chain: IRLYEREDYRGQMIEFTEDCSCLQDRFRFNEIHSLNVLEGSWVLYELSNYRGRQYLLMPGDYRRYQDWGATNARVGSLRRV

Variants of: B1
Experiment: abundance fitness (aPCA) (normalised: wild type 0, dead -1); higher = more abundant; growth selection in yeast, the domain comes from the species named
Conditions: Homo sapiens

| Variant | abundance fitness |
| --- | --- |
| Y50L | -0.383 ± 0.075 |
| Y50D | -0.693 ± 0.17 |
| Y50A | -0.493 ± 0.094 |
| L44R | -1.17 ± 0.18 |
| L44Q | -0.563 ± 0.25 |
| L44I | 0.048 ± 0.2 |
| L44F | -0.021 ± 0.16 |
| L44V | 0.035 ± 0.1 |
| L44W | -0.414 ± 0.1 |
| L44P | -1.04 ± 0.28 |
| L44Y | -0.073 ± 0.14 |
| L44N | -0.938 ± 0.4 |
| L44G | -0.024 ± 0.057 |
| L44T | -0.03 ± 0.12 |
| L44D | -0.93 ± 0.2 |
| L44A | 0.006 ± 0.12 |
| L44C | -0.093 ± 0.12 |
| L44H | -0.721 ± 0.26 |
| F29W | 0.031 ± 0.14 |
| F29Y | 0.161 ± 0.21 |
| F29T | -0.135 ± 0.11 |
| F29V | -0.072 ± 0.062 |
| V43G | -0.026 ± 0.064 |
| V43K | -0.148 ± 0.13 |

| Variant | abundance fitness |
| --- | --- |
| V43A | -0.059 ± 0.11 |
| V43H | -0.129 ± 0.45 |
| V43W | -0.028 ± 0.12 |
| V43M | 0.079 ± 0.11 |
| V43P | -0.844 ± 0.2 |
| V43F | -0.125 ± 0.14 |
| V43R | 0.006 ± 0.067 |
| V43L | -0.1 ± 0.12 |
| V43E | 0.204 ± 0.13 |
| V43D | -0.017 ± 0.17 |
| V43S | -0.029 ± 0.081 |
| V43T | -0.113 ± 0.17 |
| V43N | -0.157 ± 0.28 |
| V43Y | -0.229 ± 0.18 |
| W42P | -0.923 ± 0.25 |
| W42A | -0.554 ± 0.1 |
| W42L | -0.201 ± 0.061 |
| W42T | -0.492 ± 0.15 |
| W42C | -0.272 ± 0.082 |
| W42V | 0.114 ± 0.069 |
| W42M | -0.388 ± 0.099 |
| W42S | -0.865 ± 0.1 |
| W42Q | -0.969 ± 0.37 |
| W42I | -0.029 ± 0.2 |

| Variant | abundance fitness |
| --- | --- |
| W42N | -0.774 ± 0.28 |
| W42H | -0.38 ± 0.15 |
| W42Y | 0.166 ± 0.13 |
| W42G | -1.1 ± 0.1 |
| W42R | -0.994 ± 0.092 |
| W42F | -0.105 ± 0.12 |
| W42D | -1 ± 0.47 |
| W42E | -1.07 ± 0.25 |
| L47N | -0.014 ± 0.49 |
| L47A | -0.037 ± 0.12 |
| L47Q | 0.084 ± 0.13 |
| L47V | -0.142 ± 0.077 |
| L47M | -0.162 ± 0.21 |
| L47P | -0.989 ± 0.18 |
| L47F | 0.008 ± 0.2 |
| L47H | -0.072 ± 0.21 |
| L47G | -0.027 ± 0.069 |
| L47I | -0.16 ± 0.21 |
| L47S | 0.074 ± 0.072 |
| L47E | -0.12 ± 0.16 |
| L47D | 0.147 ± 0.14 |
| L47K | -0.221 ± 0.38 |
| L47R | 0.055 ± 0.058 |
| L47W | 0.048 ± 0.074 |

| Variant | abundance fitness |
| --- | --- |
| L47Y | -0.183 ± 0.19 |
| E31P | 0.152 ± 0.084 |
| E31N | 0.005 ± 0.32 |
| E31W | 0.078 ± 0.1 |
| E31V | -0.105 ± 0.082 |
| E31G | 0.035 ± 0.067 |
| E31L | 0.054 ± 0.085 |
| E31D | -0.096 ± 0.18 |
| E31K | -0.004 ± 0.14 |
| E31R | 0.004 ± 0.051 |
| E31F | -0.109 ± 0.16 |
| E31S | -0.123 ± 0.099 |
| E31C | -0.192 ± 0.15 |
| E31H | 0.059 ± 0.22 |
| E31M | 0.03 ± 0.19 |
| E31Q | 0.116 ± 0.17 |
| E31T | 0.048 ± 0.12 |
| E31I | 0.139 ± 0.48 |
| Y45L | -0.708 ± 0.13 |
| Y45D | -1.01 ± 0.24 |
| Y45M | -0.401 ± 0.13 |
| Y45C | -0.273 ± 0.14 |
| Y45H | -0.151 ± 0.19 |
| Y45N | -0.507 ± 0.29 |

| Variant | abundance fitness |
| --- | --- |
| Y45Q | -0.395 ± 0.19 |
| Y45S | -0.157 ± 0.089 |
| Y45V | -0.88 ± 0.14 |
| Y45G | -0.441 ± 0.061 |
| Y45R | -0.439 ± 0.072 |
| Y45E | -1.04 ± 0.19 |
| Y45T | -0.07 ± 0.097 |
| Y45P | -0.553 ± 0.15 |
| Y45A | -0.347 ± 0.083 |
| S48M | -0.166 ± 0.15 |
| S48T | -0.134 ± 0.36 |
| S48K | -0.017 ± 0.15 |
| S48Y | -0.194 ± 0.27 |
| S48G | -0.049 ± 0.065 |
| S48E | 0.208 ± 0.14 |
| S48F | -0.124 ± 0.12 |
| S48I | -0.152 ± 0.15 |
| S48Q | -0.191 ± 0.17 |
| S48D | 0.138 ± 0.12 |
| S48V | -0.159 ± 0.078 |
| S48C | 0.009 ± 0.1 |
| S48R | -0.14 ± 0.073 |
| S48L | -0.204 ± 0.087 |
| L38H | 0.024 ± 0.15 |

| Variant | abundance fitness |
| --- | --- |
| L38D | 0.064 ± 0.12 |
| L38S | -0.065 ± 0.067 |
| L38K | -0.141 ± 0.22 |
| L38Q | -0.007 ± 0.17 |
| L38V | -0.045 ± 0.083 |
| L38M | -0.035 ± 0.097 |
| L38T | -0.055 ± 0.1 |
| L38A | -0.066 ± 0.069 |
| L38P | 0.012 ± 0.078 |
| L38W | 0.153 ± 0.097 |
| L38R | 0.029 ± 0.073 |
| L38C | -0.102 ± 0.1 |
| L38G | 0.016 ± 0.057 |
| L38I | 0.007 ± 0.16 |
| E46F | -0.197 ± 0.17 |
| E46N | -0.343 ± 0.26 |
| E46C | -0.201 ± 0.1 |
| E46V | -0.325 ± 0.082 |
| E46H | -0.161 ± 0.23 |
| E46M | -0.095 ± 0.15 |
| E46Y | -0.626 ± 0.42 |
| E46A | -0.083 ± 0.086 |
| E46T | -0.047 ± 0.099 |
| E46G | -0.263 ± 0.068 |

| Variant | abundance fitness |
| --- | --- |
| E46R | -0.273 ± 0.068 |
| E46P | -0.199 ± 0.096 |
| E46Q | -0.012 ± 0.11 |
| E46S | -0.113 ± 0.1 |
| E46W | -0.783 ± 0.1 |
| N36I | -0.05 ± 0.14 |
| N36V | -0.098 ± 0.12 |
| N36R | 0.006 ± 0.086 |
| N36T | -0.153 ± 0.12 |
| N36W | 0.076 ± 0.061 |
| N36H | -0.058 ± 0.14 |
| N36P | -1.23 ± 0.23 |
| N36M | -0.112 ± 0.16 |
| N36E | 0.023 ± 0.12 |
| N36Q | 0.051 ± 0.098 |
| N36S | 0.135 ± 0.084 |
| N36K | -0.023 ± 0.17 |
| N36C | -0.054 ± 0.1 |
| N36F | 0.114 ± 0.24 |
| N36A | 0.045 ± 0.081 |
| N36G | -0.087 ± 0.085 |
| N36D | -0.051 ± 0.23 |
| N36Y | -0.086 ± 0.22 |
